From patent US20110045489A1, “Polymerases for Incorporating Modified Nucleotides” (NEW ENGLAND BIOLABS, INC., priority 2008, published 2011)

What was measured:
3′-O-azidomethyl-dCTP = test: Titration assay, incorporation of 3′-O-azidomethyl-dCTP; format: biochemical; conditions: for 3′-O-azidomethyl-dCTP incorporation / termination of synthesis / relative 3′-O-azidomethyl-dCTP incorporation efficiency, rank order: 10:1 or 1:1 3′-O-azidomethyl-dCTP:dNTP, 30 minutes; for 3′-O-azidomethyl-dCTP incorporation / termination of synthesis: 72° C. (9° N) or 37° C.; for effect of the mutations on 3′-O-azidomethyl-dCTP incorporation: versus parent exo- polymerase; for relative 3′-O-azidomethyl-dCTP incorporation efficiency, rank order: 72° C. or 37° C., FIG. 8
Experimental: Reactions were also performed in the absence of terminators to ensure that synthesis by each DNA polymerase was sufficient to extend primers without premature termination (“dNTP” lanes). Reactions with Therminator™ (NEB, Inc., Ipswich, Mass.) and 9° N exo-L408P/Y409A/S411T DNA polymerase (SEQ ID NO:6) were incubated at 72° C. for 30 minutes. Reactions with E. coli Polymerase I (pol I) (NEB, Inc., Ipswich, Mass.), Sequenase™, (USB, Inc., Cleveland, Ohio), Mma exo- and Mma exo-L417P/Y418A/S420T were incubated at 37° C. for 30 minutes. Each band corresponds to a DNA fragment terminated by a 3′-azido-dCMP. Using a titration assay as described in Gardner and Jack (2002), the relative 3′-azido-dCTP incorporation efficiency was determined for a series of DNA polymerases.
Incorporation of 3′-O-azidomethyl-dCTP by various DNA polymerases was measured using the titration assay as described in Example 1. For each reaction, a ratio of either 10:1 or 1:1 3′-O-azidomethyl-dCTP:dNTP was used to generate a termination pattern. Each band corresponded to a DNA fragment terminated by a 3′-azido-dCMP. A control reaction lacking terminator (dNTP) which yielded large extension products gave assurance that the DNA polymerase was active, and that termination products resulted from terminator incorporation rather than incomplete polymerization. Reactions with Therminator™ (NEB, Inc., Ipswich, Mass.) and 9° N exo-L408P/Y409A/S411T DNA polymerase were incubated at 72° C. for 30 minutes. Reactions with E. coli Polymerase I (pol I) (NEB, Inc., Ipswich, Mass.), Sequenase™ (USB, Inc., Cleveland, Ohio), Mma exo- and Mma exo-L417P/Y418A/S420T were conducted at 37° C. for 30 mintues. Therminator™ (NEB, Inc., Ipswich, Mass.) DNA polymerase was assayed with a 1:1 ratio of acyCTP as control.

modified nucleotide = test: Screen of DNA polymerase mutants for modified nucleotide incorporation; format: biochemical
Text: In order to determine the extent of 3′-modified nucleotide incorporation by archaeon DNA polymerases, the titration assay described by Gardner and Jack (2002) was used. In this assay, the efficiency of incorporation of chain terminators was judged by the size of the reaction products in a polymerization reaction. As the efficiency of chain-terminator incorporation increased, the average reaction product size decreased because polymerization was more often halted by terminator addition. By comparing the amount of terminator required to give the same spectrum of reaction products, the relative efficiency of incorporation of the test compounds with the different polymerases was determined.
A complex library of 9° N DNA polymerase mutants was screened for enhanced incorporation of 3′-azido-ddCTP. Several classes of 9° N DNA polymerase mutants were identified with enhanced terminator incorporation. 9° N exo-L408S/Y409A/P410V (Therminator III™, NEB, Inc., Ipswich, Mass.) was purified and characterized in more detail. 9° N DNA polymerase single mutants P410V, L408S, and Y409A and double mutants L408S/P410V, L408S/Y409A, and Y409A/P410V were also purified for comparison. Purification and characterization of DNA polymerase mutants was as described in Gardner and Jack, Nucleic Acids Res. 27:2545-2553 (1999).
A library of 9° N DNA polymerase mutants was constructed by PCR amplification of the polymerase genes using gene-specific primers or codon optimization and gene synthesis Czar et al. Trends Biotechnol 27(2): 63-72 (2009)). The ability to incorporate 3′-modified nucleotide terminators was evaluated by the titration assay for chain terminator incorporation efficiency as described by Gardner and Jack (2002).
Furthermore, the same assay was used to measure 3′-amino-ddCTP incorporation by 9° N exo-L408S/Y409A/P410V (FIG. 3) and to measure rates of incorporation (FIG. 4). Examples of mutants that increased modified nucleotide incorporation by at least two-fold were: […]

Row | increase of modified nucleotide incorporation (modified nucleotide) | relative 3′-O-azidomethyl-dCTP incorporation efficiency, rank order (3′-O-azidomethyl-dCTP) | Molecule | 3′-O-azidomethyl-dCTP incorporation / termination of synthesis (3′-O-azidomethyl-dCTP) | effect of the mutations on 3′-O-azidomethyl-dCTP incorporation (3′-O-azidomethyl-dCTP)
1 | – | – | E. coli DNA polymerase I (pol I): commercial E. coli DNA polymerase I (NEB, Inc.) [reference compound] | failed to terminate synthesis | –
2 | at least two-fold | – | 9° N exo-L408P/Y409A/S411T: 9° N DNA polymerase mutant, SEQ ID NO:6 (protein, Thermococcus sp. 9 degrees N DNAP mutant) MILDTDYITENGKPVIRVFKKENGEFKIEYDRTFEPYFYALLKDDSAIEDVKKVTAKRHGTVVKVKRAEKVQKKFLGRPIEVWKLYFNHPQDVPAIRDRIRAHPAVVDIYEYDIPFAKRYLIDKGLIPMEGDEELTMLAFAIATLYHEGEEFGTGPILMISYADGSEARVITWKKIDLPYVDVVSTEKEMIKRFLRVVREKDPDVLITYNGDNFDFAYLKKRCEELGIKFTLGRDGSEPKIQRMGDRFAVEVKGRIHFDLYPVIRRTINLPTYTLEAVYEAVFGKPKEKVYAEEIAQAWESGEGLERVARYSMEDAKVTYELGREFFPMEAQLSRLIGQSLWDVSRSSTGNLVEWFLLRKAYKRNELAPNKPDERELARRRGGYAGGYVKEPERGLWDNIVYLDFRSPAPTIIITHNVSPDTLNREGCKEYDVAPEVGHKFCKDFPGFIPSLLGDLLEERQKIKRKMKATVDPLEKKLLDYRQRAIKILANSFYGYYGYAKARWYCKECAESVTAWGREYIEMVIRELEEKFGFKVLYADTDGLHATIPGADAETVKKKAKEFLKYINPKLPGLLELEYEGFYVRGFFVTKKKYAVIDEEGKITTRGLEIVRRDWSEIAKETQARVLEAILKHGDVEEAVRIVKEVTEKLSKYEVPPEKLVIHEQITRDLRDYKATGPHVAVAKRLAARGVKIRPGTVISYIVLKGSGRIGDRAIPADEFDPTKHRYDAEYYIENQVLPAVERILKAFGYRKEDLRYQKTKQVGLGAWLKVKGKK | incorporated 3′-O-azidomethyl-dCTP efficiently | increased 3′-O-azidomethyl-dCTP incorporation
3 | – | greater than Sequenase™ | Mma exo-: exonuclease minus DNA polymerase from Methanococcus maripaludis, SEQ ID NO:22 (protein, listed as Methanococcus maripaludis, (1)..(784) Exo-) MESLIDLDYNSDDLCIYLYLINSIIKEKDFKPYFYVNSTDKEQILEFLKDYEKKHKLDSEISKMIENIETVKKIVFDENYQEKELSKVTVKYPNNVKTVREILMEFERLYEYDIPFVRRYLIDNSVIPTSTWDFENNKKIDNKIPDFKTVSFAIAVYCNKEPNPKKDPIIMASFSSKDFNTVVSTKKFDHEKLEYVKDEKELIKRIIEILKEYDIIYTYNGDNFDFPYLKKRAESFGLELKLGKNDEKIKITKGGMNSKSYIPGRVHIDLYPIARRLLNLTKYRLENVTEALFDVKKVDVGHENIPKMWDNLDETLVEYSHQDAYYTQRIGEQFLPLEIMFSRVVNQSLYDINRMSSSQMVEYLLLKNSYKMGVIAPNRPSGKEYQKRIRSSYEGGYVKEPLKGIHEDIVSMDFLSLYPSIIMSHNLSPETIDCTCCSDEENGENEEILGHKFCKKSIGIIPKTLMDLINRRKKVKKVLREKAEKGEFDEEYQILDYEQRSIKVLANSHYGYLAFPMARWYSRDCAEITTHLGRQYIQKTIEEAENFGFKVIYADTDGFYSKWADDKEKLSKYELLEKTREFLKNINNTLPGEMELEFEGYFKRGIFVTKKKYALIDENEKITVKGLEVVRRDWSNVSKNTQKNVLNALLKEGSVENAKKVIQDTIKELKDGKVNNEDLLIHTQLTKRIEDYKTTAPHVEVAKKILKSGNRVNTGDVISYIITSGNKSISERAEILENAKNYDTNYYIENQILPPVIRLMEALGITKDELKDSKKQYTLHHFLK | failed to terminate synthesis | –
4 | at least two-fold | greater than Mma exo- | Mma exo-L417P/Y418A/S420T: exonuclease minus mutant Mma DNA polymerase, SEQ ID NO:23 (protein, listed as Methanococcus maripaludis, (1)..(784) exo_ L417P/Y418A/S420T mutant) MESLIDLDYNSDDLCIYLYLINSIIKEKDFKPYFYVNSTDKEQILEFLKDYEKKHKLDSEISKMIENIETVKKIVFDENYQEKELSKVTVKYPNNVKTVREILMEFERLYEYDIPFVRRYLIDNSVIPTSTWDFENNKKIDNKIPDFKTVSFAIAVYCNKEPNPKKDPIIMASFSSKDFNTVVSTKKFDHEKLEYVKDEKELIKRIIEILKEYDIIYTYNGDNFDFPYLKKRAESFGLELKLGKNDEKIKITKGGMNSKSYIPGRVHIDLYPIARRLLNLTKYRLENVTEALFDVKKVDVGHENIPKMWDNLDETLVEYSHQDAYYTQRIGEQFLPLEIMFSRVVNQSLYDINRMSSSQMVEYLLLKNSYKMGVIAPNRPSGKEYQKRIRSSYEGGYVKEPLKGIHEDIVSMDFLSPAPTIIMSHNLSPETIDCTCCSDEENGENEEILGHKFCKKSIGIIPKTLMDLINRRKKVKKVLREKAEKGEFDEEYQILDYEQRSIKVLANSHYGYLAFPMARWYSRDCAEITTHLGRQYIQKTIEEAENFGFKVIYADTDGFYSKWADDKEKLSKYELLEKTREFLKNINNTLPGEMELEFEGYFKRGIFVTKKKYALIDENEKITVKGLEVVRRDWSNVSKNTQKNVLNALLKEGSVENAKKVIQDTIKELKDGKVNNEDLLIHTQLTKRIEDYKTTAPHVEVAKKILKSGNRVNTGDVISYIITSGNKSISERAEILENAKNYDTNYYIENQILPPVIRLMEALGITKDELKDSKKQYTLHHFLK | incorporated 3′-O-azidomethyl-dCTP efficiently | increased 3′-O-azidomethyl-dCTP incorporation
